From article PMC6882858, “Seryl tRNA synthetase cooperates with POT1 to regulate telomere length and cellular senescence”

B1: Control random DNA (dsDNA)
DNA 1: TCGAAGTCGAAGCATGGGTCGAAGCATGGG
DNA 2: CCCATGCTTCGACCCATGCTTCGACTTCGA
B2: Telomere [TTAGGG]5 (dsDNA)
DNA 1: TTAGGGTTAGGGTTAGGGTTAGGGTTAGGG
DNA 2: CCCTAACCCTAACCCTAACCCTAACCCTAA
B3: VEGFA promoter (dsDNA)
DNA 1: GGCGGGGCGGAGCCATGCGCCCCCCCCTTT
DNA 2: AAAGGGGGGGGCGCATGGCTCCGCCCCGCC

Biological target: SerRS (seryl-tRNA synthetase) (human, UniProt P49591 1-514)
Sequence (P49591 whole entry): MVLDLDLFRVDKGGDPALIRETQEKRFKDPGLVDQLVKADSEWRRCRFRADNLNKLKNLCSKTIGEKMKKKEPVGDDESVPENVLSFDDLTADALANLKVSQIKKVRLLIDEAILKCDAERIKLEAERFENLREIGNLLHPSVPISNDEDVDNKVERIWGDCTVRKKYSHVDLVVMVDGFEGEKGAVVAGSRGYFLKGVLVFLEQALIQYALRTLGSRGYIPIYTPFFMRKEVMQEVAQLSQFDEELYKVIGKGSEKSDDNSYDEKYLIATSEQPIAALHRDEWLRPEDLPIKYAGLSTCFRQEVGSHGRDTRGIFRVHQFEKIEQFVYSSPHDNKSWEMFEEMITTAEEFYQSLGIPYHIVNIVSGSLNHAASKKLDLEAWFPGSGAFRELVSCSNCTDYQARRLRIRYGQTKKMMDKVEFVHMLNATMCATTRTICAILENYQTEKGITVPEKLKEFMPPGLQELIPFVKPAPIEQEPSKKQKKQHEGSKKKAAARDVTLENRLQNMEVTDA
Assay: EMSA; 5 mM MgCl2, poly(dG-dC); 20 mM Tris-HCl pH 8.0, 60 mM KCl, 5 mM MgCl2, 0.1 mg/mL BSA, 10 ng/uL poly(dG-dC), 1 mM DTT, 0.8 pmol labeled DNA, 30 min, room temperature; 5% native PAGE
Conditions: protein: recombinant; tags: His6 (pET20b; Ni-NTA); chain copies: 2; label: 5' 32P; blunt

Binder | binding result
B1 | no binding
B2 | binds
B3 | binds
